Reference: article PMC9482650, “Quantitative fragmentomics allow affinity mapping of interactomes” (Nature Communications, 2022)

T1: TX1BP3, O14907
T1 sequence (O14907 10-122, limits assumed, looked up): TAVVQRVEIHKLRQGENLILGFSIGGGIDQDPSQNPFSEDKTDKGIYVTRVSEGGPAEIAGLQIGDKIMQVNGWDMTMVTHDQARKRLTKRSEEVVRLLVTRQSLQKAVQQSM

T2: SYNJ2BP, P57105
T2 sequence (P57105 8-110, limits assumed, looked up): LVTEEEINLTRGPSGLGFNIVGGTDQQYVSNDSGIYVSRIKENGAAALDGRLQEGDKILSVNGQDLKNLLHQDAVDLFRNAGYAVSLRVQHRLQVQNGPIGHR

T3: APBA1_2, Q02410
T3 sequence (Q02410 742-832, limits assumed, looked up): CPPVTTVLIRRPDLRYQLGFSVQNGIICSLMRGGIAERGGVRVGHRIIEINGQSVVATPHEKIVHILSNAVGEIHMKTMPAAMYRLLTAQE

T4: MPP7, Q5T2T1
T4 sequence (Q5T2T1 134-230, limits assumed, looked up): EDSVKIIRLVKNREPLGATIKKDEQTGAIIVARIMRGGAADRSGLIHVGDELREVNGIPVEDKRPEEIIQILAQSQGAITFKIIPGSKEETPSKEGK

T5: GRIP1_7, Q9Y3R0
T5 sequence (Q9Y3R0 999-1096, limits assumed, looked up): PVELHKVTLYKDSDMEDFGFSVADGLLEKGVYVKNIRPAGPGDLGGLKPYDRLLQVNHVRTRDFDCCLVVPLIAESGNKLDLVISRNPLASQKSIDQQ

T6: LNX2_3, Q8N448
T6 sequence (Q8N448 463-564, limits assumed, looked up): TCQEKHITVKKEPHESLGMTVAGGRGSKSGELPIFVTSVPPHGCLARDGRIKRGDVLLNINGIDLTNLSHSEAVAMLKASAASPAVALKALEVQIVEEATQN

T7: APBA1_1, Q02410
T7 sequence (Q02410 651-752, limits assumed, looked up): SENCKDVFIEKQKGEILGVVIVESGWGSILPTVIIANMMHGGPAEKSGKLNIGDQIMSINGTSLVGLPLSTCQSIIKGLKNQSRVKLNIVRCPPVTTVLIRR

T8: GRIP1_3, Q9Y3R0
T8 sequence (Q9Y3R0 247-346, limits assumed, looked up): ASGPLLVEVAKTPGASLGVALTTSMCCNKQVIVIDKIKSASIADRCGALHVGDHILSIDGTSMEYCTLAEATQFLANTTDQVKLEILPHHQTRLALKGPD

T9: SNTB1, Q13884
T9 sequence (Q13884 107-205, limits assumed, looked up): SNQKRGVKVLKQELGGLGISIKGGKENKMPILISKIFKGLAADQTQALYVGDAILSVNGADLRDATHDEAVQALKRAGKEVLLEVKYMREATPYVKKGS

T10: HTRA3, P83110
T10 sequence (P83110 354-453, limits assumed, looked up): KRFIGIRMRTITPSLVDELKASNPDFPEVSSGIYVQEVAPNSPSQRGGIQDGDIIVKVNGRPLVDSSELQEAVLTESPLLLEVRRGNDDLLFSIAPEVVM

T11: SHANK1, Q9Y566
T11 sequence (Q9Y566 658-767, limits assumed, looked up): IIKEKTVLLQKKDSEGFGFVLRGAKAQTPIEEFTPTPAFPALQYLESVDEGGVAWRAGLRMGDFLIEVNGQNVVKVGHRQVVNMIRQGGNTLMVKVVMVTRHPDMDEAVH

T12: MPDZ_10, O75970
T12 sequence (O75970 1624-1722, limits assumed, looked up): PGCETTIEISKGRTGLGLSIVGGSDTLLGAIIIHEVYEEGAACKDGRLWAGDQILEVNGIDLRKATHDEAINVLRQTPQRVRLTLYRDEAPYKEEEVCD

T13: PDZD7_3, Q9H5P4
T13 sequence (Q9H5P4 857-944, limits assumed, looked up): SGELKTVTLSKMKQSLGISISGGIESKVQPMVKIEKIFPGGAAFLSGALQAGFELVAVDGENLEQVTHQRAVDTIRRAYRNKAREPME


Tests used:
Experiment in all cases: holdup assay
Parameters in all cases: key: below the threshold = too weak to quantify, mostly under pKd 3.1 to 4
Conditions in all cases: plain residues with an end cap or a label only (N-terminal biotin on a linker: ado-ado)
[1] = molecular target: T1, TX1BP3, O14907
[2] = molecular target: GRID2IP_1, A4D2P6
GRID2IP_1, A4D2P6, sequence (A4D2P6 1-87): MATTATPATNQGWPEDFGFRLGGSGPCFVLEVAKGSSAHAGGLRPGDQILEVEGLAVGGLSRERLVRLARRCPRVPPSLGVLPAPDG

[3] = molecular target: T2, SYNJ2BP, P57105
[4] = molecular target: FRMPD2_1, Q68DX3
FRMPD2_1, Q68DX3, sequence (Q68DX3 770-861): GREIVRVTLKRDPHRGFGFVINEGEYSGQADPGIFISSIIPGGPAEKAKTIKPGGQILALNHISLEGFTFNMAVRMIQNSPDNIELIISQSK

[5] = molecular target: NHERF4_4, Q86UT5
NHERF4_4, Q86UT5, sequence (Q86UT5 464-550): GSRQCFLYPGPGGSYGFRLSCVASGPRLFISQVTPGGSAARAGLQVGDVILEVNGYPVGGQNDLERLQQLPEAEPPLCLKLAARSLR

[6] = molecular target: MAST1, Q9Y2H9
MAST1, Q9Y2H9, sequence (Q9Y2H9 962-1065): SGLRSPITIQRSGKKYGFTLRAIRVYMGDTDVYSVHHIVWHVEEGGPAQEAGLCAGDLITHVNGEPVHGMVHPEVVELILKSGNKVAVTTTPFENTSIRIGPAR

[7] = molecular target: T3, APBA1_2, Q02410
[8] = molecular target: T4, MPP7, Q5T2T1
[9] = molecular target: Inadl_1, Q8NI35
Inadl_1, Q8NI35, sequence (Q8NI35 113-229): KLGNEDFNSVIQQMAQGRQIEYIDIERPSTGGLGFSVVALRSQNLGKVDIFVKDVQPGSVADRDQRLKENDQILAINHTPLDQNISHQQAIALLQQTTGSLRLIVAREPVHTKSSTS

[10] = molecular target: T5, GRIP1_7, Q9Y3R0
[11] = molecular target: GIPC2, Q8TF65
GIPC2, Q8TF65, sequence (Q8TF65 112-203): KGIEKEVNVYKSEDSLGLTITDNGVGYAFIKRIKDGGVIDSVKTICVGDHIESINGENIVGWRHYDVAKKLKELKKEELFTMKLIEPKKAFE

[12] = molecular target: T6, LNX2_3, Q8N448
[13] = molecular target: DLG2_2, Q15700
DLG2_2, Q15700, sequence (Q15700 189-283): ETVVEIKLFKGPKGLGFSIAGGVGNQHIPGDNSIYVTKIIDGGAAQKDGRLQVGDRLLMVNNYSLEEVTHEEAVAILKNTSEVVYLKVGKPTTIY

[14] = molecular target: MAGI3_2, Q5TCQ9
MAGI3_2, Q5TCQ9, sequence (Q5TCQ9 398-503): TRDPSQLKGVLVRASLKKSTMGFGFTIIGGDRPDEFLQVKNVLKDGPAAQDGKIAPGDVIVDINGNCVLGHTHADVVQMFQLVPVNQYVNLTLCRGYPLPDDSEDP

[15] = molecular target: T7, APBA1_1, Q02410
[16] = molecular target: T8, GRIP1_3, Q9Y3R0
[17] = molecular target: T9, SNTB1, Q13884
[18] = molecular target: GRID2IP_2, A4D2P6
GRID2IP_2, A4D2P6, sequence (A4D2P6 272-370): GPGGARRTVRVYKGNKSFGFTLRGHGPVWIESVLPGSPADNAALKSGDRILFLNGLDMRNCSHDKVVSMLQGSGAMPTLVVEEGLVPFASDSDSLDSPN

[19] = molecular target: T10, HTRA3, P83110
[20] = molecular target: PARD3_3, Q8TEW0
PARD3_3, Q8TEW0, sequence (Q8TEW0 582-685): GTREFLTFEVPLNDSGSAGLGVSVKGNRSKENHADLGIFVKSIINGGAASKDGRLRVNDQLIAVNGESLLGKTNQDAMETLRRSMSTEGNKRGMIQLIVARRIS

[21] = molecular target: T11, SHANK1, Q9Y566
[22] = molecular target: T12, MPDZ_10, O75970
[23] = molecular target: T13, PDZD7_3, Q9H5P4

Binder | pKd [1] | pKd [2] | pKd [3] | pKd [4] | pKd [5] | pKd [6] | pKd [7] | pKd [8] | pKd [9] | pKd [10] | pKd [11] | pKd [12] | pKd [13] | pKd [14] | pKd [15] | pKd [16] | pKd [17] | pKd [18] | pKd [19] | pKd [20] | further results
DHLGGGGESM [TNRC6A, Q8NDV7] | below the threshold | below the threshold | below the threshold | below the threshold | below the threshold | 3.91 | below the threshold | below the threshold | below the threshold | below the threshold | below the threshold | below the threshold | below the threshold | below the threshold | below the threshold | below the threshold | below the threshold | below the threshold | below the threshold | below the threshold | pKd [21]: below the threshold; pKd [22]: below the threshold; pKd [23]: below the threshold
IPGKEFDTPL [PLCB1, Q9NQ66] | 3.87 | below the threshold | 4.33 | below the threshold | below the threshold | 4.31 | below the threshold | below the threshold | below the threshold | below the threshold | below the threshold | below the threshold | below the threshold | below the threshold | below the threshold | below the threshold | 3.96 | below the threshold | below the threshold | below the threshold | pKd [21]: 3.96; pKd [22]: below the threshold; pKd [23]: 3.8
NLQEHSTTSV [RSBN1, Q5VWQ0] | 3.97 | below the threshold | 4.42 | below the threshold | below the threshold | 4.76 | 3.58 | below the threshold | below the threshold | below the threshold | below the threshold | below the threshold | 3.67 | 4.38 | below the threshold | below the threshold | 3.99 | 3.8 | below the threshold | below the threshold | pKd [21]: 3.91; pKd [22]: below the threshold; pKd [23]: 4
HLRQQGSVEV [EPHB6, O15197] | 3.85 | 4.13 | below the threshold | 4.14 | below the threshold | below the threshold | 3.99 | below the threshold | below the threshold | below the threshold | below the threshold | below the threshold | below the threshold | below the threshold | below the threshold | below the threshold | below the threshold | below the threshold | 3.81 | below the threshold | pKd [21]: below the threshold; pKd [22]: below the threshold; pKd [23]: below the threshold
